In publication doi:10.1101/2024.03.08.584095v1:
Numbering of substitutions follows the chain as printed. In names and notes the source's numbering stands.

B1: AtPORB (Arabidopsis thaliana; S312E) (protein)
chain: QTAATSSPTVTKSVDGKKTLRKGNVVVTGASSGLGLATAKALAETGKWNVIMACRDFLKAERAAKSVGMPKDSYTVMHLDLASLDSVRQFVDNFRRTETPLDVLVCNAAVYFPTAKEPTYSAEGFELSVATNHLGHFLLARLLLDDLKKSDYPSKRLIIVGSITGNTNTLAGNVPPKANLGDLRGLAGGLNGLNSSAMIDGGDFDGAKAYKDSKVCNMLTMQEFHRRFHEETGVTFASLYPGCIAETGLFREHIPLFRALFPPFQKYITKGYVSETESGKRLAQVVSDPSLTKSGVYWSWNNASASFENQLSEEASDVEKARKVWEISEKLVGLA
B2: AtPORA (Arabidopsis thaliana) (protein)
chain: QAIATSTPSVTKSSLDRKKTLRKGNVVVTGASSGLGLATAKALAETGKWHVIMACRDFLKAERAAQSAGMPKDSYTVMHLDLASLDSVRQFVDNFRRAEMPLDVLVCNAAVYQPTANQPTFTAEGFELSVGINHLGHFLLSRLLIDDLKNSDYPSKRLIIVGSITGNTNTLAGNVPPKANLGDLRGLAGGLNGLNSSAMIDGGDFVGAKAYKDSKVCNMLTMQEFHRRFHEDTGITFASLYPGCIATTGLFREHIPLFRTLFPPFQKYITKGYVSESEAGKRLAQVVADPSLTKSGVYWSWNKTSASFENQLSQEASDVEKARRVWEVSEKLVGLA
B3: SynPOR (Synechocystis sp. PCC 6803 substr. Kazusa) (protein)
chain: MEQPMKPTVIITGASSGVGLYGAKALIDKGWHVIMACRNLDKTQKVADELGFPKDSYTIIKLDLGYLDSVRRFVAQFRELGRPLKALVCNAAVYFPLLDEPLWSADDYELSVATNHLGHFLLCNLLLEDLKACPDADKRLIILGTVTANSKELGGKIPIPAPPDLGNFEGFEAGFKKPIAMINNKKFKSGKAYKDSKLCNMLTTRELHRRFHQETGIVFNSLYPGCVADTPLFRNHYSLFRTIFPWFQKNVTKGYVSQELAGERVAMVVADDKFKDSGVHWSWGNRQQAGREAFVQELSEQGSDAQKAQRMWDLSEKLVGLV
B4: TaPOR1 (Triticum aestivum) (protein)
chain: GVVVITGASSGLGLAAAKALAETGKWHVVMACRDFLKASKAAKAAGMADGSYTVMHLDLASLDSVRQFVDAFRRAEMPLDVLVCNAAIYRPTARTPTFTADGHEMSVGVNHLGHFLLARLLMEDLQKSDYPSRRMVIVGSITGNSNTLAGNVPPKASLGDLRGLAGGLSGASGSAMIDGDESFDGAKAYKDSKVCNMLTMQEFHRRYHEETGITFSSLYPGCIATTGLFREHIPLFRTLFPPFQKFVTKGFVSEAESGKRLAQVVAEPSLTKSGVYWSWNKDSASFENQLSQEASDPEKARKVWELSEKLVGLA
B5: AtPORC (Arabidopsis thaliana) (protein)
chain: QTVTATPPANEASPEQKKTERKGTAVITGASSGLGLATAKALADTGKWHVIMACRNFLKAEKAARSVGMSKEDYTVMHLDLASLESVKQFVENFRRTEQPLDVLVCNAAVYQPTAKEPSFTAEGFEISVGTNHLGHFLLSRLLLDDLKKSDYPSKRMIIVGSITGNTNTLAGNVPPKANLGDLRGLASGLNGQNSSMIDGGEFDGAKAYKDSKVCNMLTMQELHRRYHEETGVTFASLYPGCIATTGLFREHIPLFRLLFPPFQKYITKGYVSEEEAGKRLAQVVSDPSLGKSGVYWSWNNNSSSFENQLSKEASDAEKAKKLWEVSEKLVGLA
B6: AtPORB (Arabidopsis thaliana) (protein)
chain: B1 chain with E246S

Substrate: NC(=O)C1=CN([C@@H]2O[C@H](COP(=O)(O)OP(=O)(O)OC[C@H]3O[C@@H](n4cnc5c(N)ncnc54)[C@H](OP(=O)(O)O)[C@@H]3O)[C@@H](O)[C@H]2O)C=CC1
Experiment: purified protein
Details: pH 7.1

Protein | Km [µM]
B1 | 14.4 ± 1.66

Substrate: NC(=O)C1=CN([C@@H]2O[C@H](COP(=O)(O)OP(=O)(O)OC[C@H]3O[C@@H](n4cnc5c(N)ncnc54)[C@H](OP(=O)(O)O)[C@@H]3O)[C@@H](O)[C@H]2O)C=CC1
Experiment: purified protein, by the assay type
Details: not given

Protein | Km [µM]
B2 | 2.47
B3 | 12.85
B4 | 39.67
B5 | 0.73
B6 | 1.27
